According to US20220339270A1 (published 2022):

Experiments:
[1] = target: T1, extracellular tau in the form of paired helical filaments (ePHF) (UniProt P10636-8 1-441, limits assumed); assay: method not stated
T1 construct: Immobilised on 96-well plates for the ePHF tau ELISA; also called ePHF tau; PHF tau

[2] = target: T2, recombinant tau mutant protein tau441-T212A+S214A (phospho-Tau variant) (human, UniProt P10636 1-758, phosphorylated (phospho-Tau variant; kinase DYRK1A by the context)); assay: PT3 ELISA with phospho-Tau variants
T2 construct: not shown: his tag (detected with anti-his antibody)

[3] = target: T3, recombinant tau mutant protein tau441-T217A+T231A (phospho-Tau variant) (human, UniProt P10636 1-758, phosphorylated (phospho-Tau variant; kinase DYRK1A by the context)); assay: PT3 ELISA with phospho-Tau variants
T3 construct: not shown: his tag (detected with anti-his antibody)

[4] = target: T4, recombinant tau mutant protein tau441-T212A+T217A (phospho-Tau variant) (human, UniProt P10636 1-758, phosphorylated (phospho-Tau variant; kinase DYRK1A by the context)); assay: PT3 ELISA with phospho-Tau variants
T4 construct: not shown: his tag (detected with anti-his antibody)

[5] = target: T5, recombinant tau mutant protein tau441-T212A+T217A+T231A (phospho-Tau variant) (human, UniProt P10636 1-758, phosphorylated (phospho-Tau variant; kinase DYRK1A by the context)); assay: PT3 ELISA with phospho-Tau variants
T5 construct: not shown: his tag (detected with anti-his antibody)

[6] = target: T6, recombinant tau mutant protein tau441-T212A+T231A (phospho-Tau variant) (human, UniProt P10636 1-758, phosphorylated (phospho-Tau variant; kinase DYRK1A by the context)); assay: PT3 ELISA with phospho-Tau variants
T6 construct: not shown: his tag (detected with anti-his antibody)

[7] = target: T7, Tau441-T212A + T231A, phosphorylated in vitro by DYRK1A (human, UniProt P10636 1-758, phosphorylated in vitro by DYRK1A; occupied sites not determined individually); assay: PT3 ELISA, 210 ng/mL DYRK1A-phosphorylated tau variant
T7 construct: His-tagged

[8] = target: T8, Tau441-T217A + T231A, phosphorylated in vitro by DYRK1A (human, UniProt P10636 1-758, phosphorylated in vitro by DYRK1A; occupied sites not determined individually); assay: as above
T8 construct: His-tagged

[9] = target: T9, Wild-type Tau441, phosphorylated in vitro by DYRK1A (human, UniProt P10636 1-758); assay: as above
T9 construct: Recombinant protein detected with an anti-his antibody; also called phospho-tau

[10] = target: T10, Tau441-T212A + T217A, phosphorylated in vitro by DYRK1A (human, UniProt P10636 1-758, phosphorylated in vitro by DYRK1A; occupied sites not determined individually); assay: as above
T10 construct: His-tagged
T10 sequence (P10636 other isoform, or with tags, fused parts or gaps T212A T217A T212A T217A limits assumed): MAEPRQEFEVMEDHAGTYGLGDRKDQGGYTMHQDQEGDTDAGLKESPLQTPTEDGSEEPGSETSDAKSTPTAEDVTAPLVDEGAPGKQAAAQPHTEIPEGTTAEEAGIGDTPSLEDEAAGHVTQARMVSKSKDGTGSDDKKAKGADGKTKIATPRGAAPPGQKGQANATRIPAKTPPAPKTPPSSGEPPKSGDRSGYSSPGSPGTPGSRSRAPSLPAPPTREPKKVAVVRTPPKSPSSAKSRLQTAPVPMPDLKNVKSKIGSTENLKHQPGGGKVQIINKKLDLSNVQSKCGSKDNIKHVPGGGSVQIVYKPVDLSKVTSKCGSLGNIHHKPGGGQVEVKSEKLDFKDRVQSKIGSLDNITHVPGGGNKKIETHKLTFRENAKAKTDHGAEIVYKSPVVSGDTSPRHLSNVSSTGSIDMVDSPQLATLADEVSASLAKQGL

[11] = target: T11, Tau441-T212A + S214A, phosphorylated in vitro by DYRK1A (human, UniProt P10636 1-758, phosphorylated in vitro by DYRK1A; occupied sites not determined individually); assay: as above
T11 construct: His-tagged

[12] = target: T12, Tau441-T212A + T217A + T231A, phosphorylated in vitro by DYRK1A (human, UniProt P10636 1-758, phosphorylated in vitro by DYRK1A; occupied sites not determined individually); assay: as above
T12 construct: His-tagged

Tau441_S400A = target: T13, Tau441_S400A (human, UniProt P10636 2-758); assay: ELISA, PT3 immobilized, tau protein applied at 333 ng/mL
T13 construct: not phosphorylated; not shown: his tag added
T13 sequence (P10636 other isoform, or with tags, fused parts or gaps S400A S400A): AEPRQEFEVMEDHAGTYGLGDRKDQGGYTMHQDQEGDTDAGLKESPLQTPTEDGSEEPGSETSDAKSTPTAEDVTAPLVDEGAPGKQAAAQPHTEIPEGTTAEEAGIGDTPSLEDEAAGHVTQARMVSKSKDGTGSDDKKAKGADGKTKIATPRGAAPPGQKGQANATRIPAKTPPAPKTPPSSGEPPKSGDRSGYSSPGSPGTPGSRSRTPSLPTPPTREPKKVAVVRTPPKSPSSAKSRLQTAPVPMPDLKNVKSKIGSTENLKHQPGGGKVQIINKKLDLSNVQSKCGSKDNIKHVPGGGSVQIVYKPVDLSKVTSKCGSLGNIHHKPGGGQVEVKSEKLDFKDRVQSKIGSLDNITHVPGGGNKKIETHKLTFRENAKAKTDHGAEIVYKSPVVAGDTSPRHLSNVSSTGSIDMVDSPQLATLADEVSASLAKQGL

Phospho_Tau441_S396A = target: T14, Phospho_Tau441_S396A (human, UniProt P10636 2-758, phosphorylated in vitro by DYRK1A; sites not determined); assay: as above
T14 construct: not shown: his tag added
T14 sequence (P10636 other isoform, or with tags, fused parts or gaps S396A S396A): as the sequence (P10636 other isoform, or with tags, fused parts or gaps S400A S400A) above, with S395A, A399S counted along it

Phospho_Tau441_S400A = target: T15, Phospho_Tau441_S400A (human, UniProt P10636 2-758, phosphorylated in vitro by DYRK1A; sites not determined); assay: as above
T15 construct: not shown: his tag added
T15 sequence (P10636 other isoform, or with tags, fused parts or gaps S400A S400A): as the sequence (P10636 other isoform, or with tags, fused parts or gaps S400A S400A) above

Phospho_Tau441_S422A = target: T16, Phospho_Tau441_S422A (human, UniProt P10636 2-758, phosphorylated in vitro by DYRK1A; sites not determined); assay: as above
T16 construct: not shown: his tag added

Phospho_Tau441_T217A = target: T17, Phospho_Tau441_T217A (human, UniProt P10636 2-758, phosphorylated in vitro by DYRK1A; sites not determined); assay: as above
T17 construct: not shown: his tag added
T17 sequence (P10636 other isoform, or with tags, fused parts or gaps T217A T217A): as the sequence (P10636 other isoform, or with tags, fused parts or gaps S400A S400A) above, with T216A, A399S counted along it

Phospho_Tau441_T202A = target: T18, Phospho_Tau441_T202A (human, UniProt P10636 2-758, phosphorylated in vitro by DYRK1A; sites not determined); assay: as above
T18 construct: the list of mutated sites gives S202; also called S202 mutant; not shown: his tag added

Phospho_Tau441_S404A = target: T19, Phospho_Tau441_S404A (human, UniProt P10636 2-758, phosphorylated in vitro by DYRK1A; sites not determined); assay: as above
T19 construct: not shown: his tag added
T19 sequence (P10636 other isoform, or with tags, fused parts or gaps S404A S404A): as the sequence (P10636 other isoform, or with tags, fused parts or gaps S400A S400A) above, with A399S, S403A counted along it

Tau441_T202A = target: T20, Tau441_T202A (human, UniProt P10636 2-758); assay: as above
T20 construct: not phosphorylated; printed T202A, the text gives S202; also called S202 mutant; not shown: his tag added

Tau441_T205A = target: T21, Tau441_T205A (human, UniProt P10636 2-758); assay: as above
T21 construct: not phosphorylated; not shown: his tag added

Tau441_T231A = target: T22, Tau441_T231A (human, UniProt P10636 2-758); assay: as above
T22 construct: not phosphorylated; not shown: his tag added

Tau441_S404A = target: T23, Tau441_S404A (human, UniProt P10636 2-758); assay: as above
T23 construct: not phosphorylated; not shown: his tag added
T23 sequence (P10636 other isoform, or with tags, fused parts or gaps S404A S404A): as the sequence (P10636 other isoform, or with tags, fused parts or gaps S400A S400A) above, with A399S, S403A counted along it

Tau441_T181A = target: T24, Tau441_T181A (human, UniProt P10636 2-758); assay: as above
T24 construct: not phosphorylated; not shown: his tag added

Phospho_Tau441_T205A = target: T25, Phospho_Tau441_T205A (human, UniProt P10636 2-758, phosphorylated in vitro by DYRK1A; sites not determined); assay: as above
T25 construct: not shown: his tag added

Tau441_S396A = target: T26, Tau441_S396A (human, UniProt P10636 2-758); assay: as above
T26 construct: not phosphorylated; not shown: his tag added
T26 sequence (P10636 other isoform, or with tags, fused parts or gaps S396A S396A): as the sequence (P10636 other isoform, or with tags, fused parts or gaps S400A S400A) above, with S395A, A399S counted along it

Phospho_Tau441_T231A = target: T27, Phospho_Tau441_T231A (human, UniProt P10636 2-758, phosphorylated in vitro by DYRK1A; sites not determined); assay: as above
T27 construct: not shown: his tag added

Tau441_S199A = target: T28, Tau441_S199A (human, UniProt P10636 2-758); assay: as above
T28 construct: not phosphorylated; not shown: his tag added

Tau441_T212A = target: T29, Tau441_T212A (human, UniProt P10636 2-758); assay: as above
T29 construct: not phosphorylated; not shown: his tag added

Phospho_Tau441_S199A = target: T30, Phospho_Tau441_S199A (human, UniProt P10636 2-758, phosphorylated in vitro by DYRK1A; sites not determined); assay: as above
T30 construct: not shown: his tag added

Phospho_Tau441_T181A = target: T31, Phospho_Tau441_T181A (human, UniProt P10636 2-758, phosphorylated in vitro by DYRK1A; sites not determined); assay: as above
T31 construct: not shown: his tag added

Tau441_T217A = target: T32, Tau441_T217A (human, UniProt P10636 2-758); assay: as above
T32 construct: not phosphorylated; not shown: his tag added
T32 sequence (P10636 other isoform, or with tags, fused parts or gaps T217A T217A): as the sequence (P10636 other isoform, or with tags, fused parts or gaps S400A S400A) above, with T216A, A399S counted along it

Phospho_Tau441_T212A = target: T33, Phospho_Tau441_T212A (human, UniProt P10636 2-758, phosphorylated in vitro by DYRK1A; sites not determined); assay: as above
T33 construct: not shown: his tag added

[13] = target: T34, wild-type tau (441 amino acids; tau441; NP_005901.2) (human, UniProt P10636 1-758); assay: wtTau ELISA
T34 construct: Unphosphorylated recombinant tau441 used in the wild-type tau ELISA; also called wt tau441; wtTau
T34 sequence (P10636 other isoform, or with tags, fused parts or gaps limits assumed): as the sequence (P10636 other isoform, or with tags, fused parts or gaps T212A T217A T212A T217A limits assumed) above, with A212T, A217T counted along it

T1 sequence (P10636 other isoform, or with tags, fused parts or gaps limits assumed): as the sequence (P10636 other isoform, or with tags, fused parts or gaps T212A T217A T212A T217A limits assumed) above, with A212T, A217T counted along it

B1: anti-tau antibody PT3 (antibody, V domains shown)
VH: EVKLVESGGDLVKPGGSLKLSCAASGFTFSSYAMSWVRQNPEKRLEWVASISKGGNTYYPNSVKGRFTISRDNARNILYLQMSSLRSEDTALYYCARGWGDYGWFAYWGQVTLVTVSA
VL: DIKMTQSPSSMYASLGERVTITCKASQDINRYLNWFQQKPGKSPKTLIYRANRLLDGVPSRFSGSGSGQDYSLTISSLDYEDMGIYYCLQYDEFPLTFGDGTKLELK
notes: also called purified PT3 antibody
[1]
  Kd: 0.018 nM
[2]
  binding result: no binding (tested: 210 ng/mL)
[3]
  binding result: no binding (tested: 210 ng/mL)
[4]
  binding result: no binding (tested: 210 ng/mL)
[5]
  binding result: no binding (tested: 210 ng/mL)
[6]
  binding result: no binding (tested: 210 ng/mL)

B2: anti-tau antibody PT3 (antibody, V domains shown)
VH: B1 VH
VL: B1 VL
[7]
  OD450-570: 0.1 OD
[8]
  OD450-570: 0.1 OD
[9]
  OD450-570: 1.7 OD
[10]
  OD450-570: 0 OD
[11]
  OD450-570: 0.1 OD
[12]
  OD450-570: 0 OD

B3: anti-tau antibody PT3 (antibody, V domains shown)
VH: B1 VH
VL: B1 VL
Tau441_S400A
  OD450-570: 0
Phospho_Tau441_S396A
  OD450-570: 0.5
Phospho_Tau441_S400A
  OD450-570: 0.3
Phospho_Tau441_S422A
  OD450-570: 0.3
Phospho_Tau441_T217A
  OD450-570: 0
Phospho_Tau441_T202A
  OD450-570: 0.6
Phospho_Tau441_S404A
  OD450-570: 0.6
Tau441_T202A
  OD450-570: 0
Tau441_T205A
  OD450-570: 0
Tau441_T231A
  OD450-570: 0
Tau441_S404A
  OD450-570: 0
Tau441_T181A
  OD450-570: 0
Phospho_Tau441_T205A
  OD450-570: 0.4
Tau441_S396A
  OD450-570: 0
Phospho_Tau441_T231A
  OD450-570: 0.3
Tau441_S199A
  OD450-570: 0
Tau441_T212A
  OD450-570: 0
Phospho_Tau441_S199A
  OD450-570: 0.7
Phospho_Tau441_T181A
  OD450-570: 0.4
Tau441_T217A
  OD450-570: 0
Phospho_Tau441_T212A
  OD450-570: 0

B4: IPN002 Fab_ext expressed from TAU_ITR128 (CAG, HF.T2AL) (Fab, V domains shown)
VH: EVHLVESGGALVKPGGSLKLSCAASGFSFSKYGMSWVRQTPDKRLEWVATISSSGSRTYYPDSVKGQFTISRDNAKNTLYLQMSSLKSEDTAMYYCSISWDGAMDYWGQGTSVTVSS
VL: DVLMTQTPLSLPVSLGDQASISCKSSQSIVHSNGNTYLEWYLQKPGQSPKLLVYKVSNRFSGVPDRFSGSGSGTDFTLKISRVEAEDLGTYYCFQGSLVPWAFGGGTKLEIK
[13]
  binding result: binds

B5: IPN002 Fab_ext expressed from TAU_ITR129 (CBA, hGbin, LT2AH) (Fab, V domains shown)
VH: B4 VH
VL: B4 VL
notes: Extended Fab
[13]
  binding result: binds

B6: IPN002 Fab_ext expressed from TAU_ITR130 (CAG, LT2AH) (Fab, V domains shown)
VH: B4 VH
VL: B4 VL
notes: Extended Fab
[13]
  binding result: binds
